Experimental data taken from paper PMC10938628 (Science Advances, 2022).

Key:
[1] = target: intact CarHC (C-terminal domain of the photoreceptor CarH); assay: SEC
[2] = target: the molecule itself; assay: SEC + other: dynamic light scattering
SEC = target: the molecule itself; assay: SEC

Molecule: intact CarHC (C-terminal domain of the photoreceptor CarH) (domain or fragment)
- stoichiometry N [1]: 4

B1: CarHCC (Phe161-Leu276 of the photoreceptor CarH; C-terminal Rossmann-fold B12-binding segment of split CarHC) (domain or fragment, UniProt Q53W62 161-276, looked up)
chain: FPPGPPVLVTTPPGERHEIGAMLAAYHLRRKGVPALYLGPDTPLPDLRALARRLGAGTVVLSAVLSEPLRALPDGALKDLAPRVFLGGQGAGPEEARRLGAEYMEDLKGLAEALWL
- stoichiometry N [2]: 4

B2: reconstituted split CarHC complex (CarHCN + CarHCC held together by a cobalamin) (complex)
chain 1: PEDLGTGLLEALLRGDLAGAEALFRRGLRFWGPEGVLEHLLLPVLREVGEAWHRGEIGVAEEHLASTFLRARLQELLDLAGFPPGPP
chain 2: FPPGPPVLVTTPPGERHEIGAMLAAYHLRRKGVPALYLGPDTPLPDLRALARRLGAGTVVLSAVLSEPLRALPDGALKDLAPRVFLGGQGAGPEEARRLGAEYMEDLKGLAEALWL
- stoichiometry N (SEC): 4
